Test results: US20080305122A1

How the values were obtained:
[1] = molecular target: PGCC(95-104) epitope peptide (Ac-…-NH2), pigeon cytochrome C (pigeon); experiment: ELISA, coated PGCC(95-104) peptide, control mouse serum, anti-mouse IgG1 or IgG2a detection
[2] = molecular target: HIV gp160(843-855) peptide (HIV); experiment: ELISA, coated HIV gp160(843-855) peptide, control mouse serum, anti-mouse IgG1 or IgG2a detection

Row | Substance | ELISA absorbance at 450 nm, serum dilution 1:20 (absorbance (450 nm)) [1] | ELISA absorbance at 450 nm, serum dilution 1:60 (absorbance (450 nm)) [1] | ELISA absorbance at 450 nm, serum dilution 1:180 (absorbance (450 nm)) [1] | ELISA absorbance at 450 nm, serum dilution 1:540 (absorbance (450 nm)) [1] | ELISA absorbance at 450 nm, serum dilution 1:1620 (absorbance (450 nm)) [1] | ELISA absorbance at 450 nm, serum dilution 1:4860 (absorbance (450 nm)) [1] | ELISA absorbance at 450 nm, serum dilution 1:20 (absorbance (450 nm)) [2] | ELISA absorbance at 450 nm, serum dilution 1:60 (absorbance (450 nm)) [2] | ELISA absorbance at 450 nm, serum dilution 1:180 (absorbance (450 nm)) [2] | ELISA absorbance at 450 nm, serum dilution 1:540 (absorbance (450 nm)) [2]
1 | Serum of mice given no immunogen (control of Table 22.1) (antibody) | 0.105 | 0.72 | 0.049 | 0.036 |  |  |  |  |  | 
2 | Serum of mice given no immunogen (control of Table 22.2) (antibody) | 0.042 | 0.004 | -0.003 | 0.007 | 0.006 | 0.005 |  |  |  | 
3 | Serum of mice given no immunogen (control of Table 22.3) (antibody) |  |  |  |  |  |  | 0.084 | 0.045 | 0.004 | -0.003
